Sequences and labels used below:
B1: 14E5Mut65 scFv (scFv, V domains shown)
VH: QVQLQQSGAELMKPGASVKISCKATGYSFSTNWIEWIKQRPGHGLEWIGHILPGSVITNYNEKFKGKAAITADTSSNTSYMQLSSLTSDDSAVYYCARWGWDSYWGQGTLVTVSS
VL: DIKMTQSPSSLSASLGDRVTISCSASQGISNYLNWYQQKPDGTVKLLIYYTSSLHSGVPSRFSGSGSGTDYSLTISNLEPEDIATYYCQQFSNLPYTFGGGTKLEIK
B2: 11E8Mut28 scFv (scFv, V domains shown)
VH: EVQLQQSGPELMKTGASVKISCKATGYTFSSYWIEWVKQRPGHGLEWIGDILPGSGTTNYNEKFKGKAAITADTSSNTSYLQLSSLTSEDSAVYYCARWGWDSYWGQGTLVTVSS
VL: B1 VL with K3V
B3: 14E5 scFv (scFv, V domains shown)
VH: B1 VH with Q1E, S28T, N32Y, D89E
VL: B1 VL with K3E, A25T, G28D, N31S, Y32S, K45T, S53N, F91Y, N93K
B4: 14E5Mut11 scFv (scFv, V domains shown)
VH: B1 VH with Q1E, S28T, D89E
VL: B1 VL with K3L, N31K, F91Y
B5: 14E5Mut42 scFv (scFv, V domains shown)
VH: B1 VH with Q1E, Q3P, S28T, N32Y, D89E
VL: B1 VL with K3V, S7T, F91Y, N93D
B6: 14E5Mut83 scFv (scFv, V domains shown)
VH: B1 VH with Q1E, E10V, S28T, N32H, D89E
VL: B1 VL with K3L, F91Y, N93D
B7: 14E5Mut95 scFv (scFv, V domains shown)
VH: B1 VH with Q1E, S7T, S28T, N32Y, A69V, D89E
VL: B1 VL with K3E, F91Y, N93D
B8: 4F1 scFv (scFv, V domains shown)
VH: QVQLQQSGAELVRPGTSVKVSCKASGYAFTNYLIEWVKQRPGQGLEWIGVINPGTGGTNYNKKFKVKATLTADKSSSTAYMQLGGLTFDDSAVYFCAREGNARTYYYAMDYWGQGTSVTVSS
VL: DIEMTQTPASLSASVGETVTITCRASENIYSYLVWYQQKQGKSPQVLVYNAKTLAEGVPSRFSGSGSGTQFSLKINSLQPEDFGSYYCQHHNGTPYTFGGGTKLEIK
B9: 6B9 scFv (scFv, V domains shown)
VH: QVQLQQSGAELVRPGTSVKVSCKASGYAFTDYLIEWVKQRPGQGLEWIGVINPETGGTNYNAKFKGKATLTADKSSSSAYMQLSSLTSGDSAVYFCAREAGNYIYAMDYWGQGTSVTVSS
VL: B8 VL with E3Q, T7S, E27V, V46L, Y49H, N92H
B10: 6B9Mut1 scFv (scFv, V domains shown)
VH: B9 VH with K65R
VL: B8 VL with E3V, T7S, E27V, V46L, Y49H, N92H
B11: 11E8 scFv (scFv, V domains shown)
VH: EVQLQQSGPELMKTGASVKISCKATGYTFSSYWIEWVKQRPGHGLEWIGDILPGSGTTNYNEKFKGRATVTADRSSNTAYMQLSSLTYGDSAVYYCATWGWDTYWDQGTSVTVSS
VL: B1 VL with K3V, F91Y
B12: 11E8Mut94 scFv (scFv, V domains shown, part only)
VH: B2 VH with K65E, K67R, L81M
VL: DIKMTQTPSSLSASLGDRVTISCSASQGISNYLNWYQQKPDGTVKLLIYYTSSLHSGVPSRFSGSGSGTDYSLTISNLEPEDIATYYCQQYSNLPYTFGGGTKLEIKR
modifications: linker not given; order not stated
B13: 14E5Mut54 scFv (scFv, V domains shown, part only)
VH: B1 VH with Q1E, S28T, D89E
VL: B12 VL with K3V, S22R
modifications: linker not given; order not stated
B14: 14E5Mut68 scFv (scFv, V domains shown, part only)
VH: B2 VH with P9A, T14P, S31T, V37I, K67R, A69T, I70V, T74R, S79A, L81M
VL: B12 VL with T7S, N93E
modifications: linker not given; order not stated
B15: 11E8Mut39 scFv (scFv, V domains shown, part only)
VH: B11 VH with S31T, D50H, I51T, V70I, S75P, A79S, Y94F, Q107H
VL: DIEMTQSPSSLSASLGDRVTISCSTSQDVSSYLNWYQQKPDGTVTLLIYYASNLHSGVPSRFSGSGSGTDYSLAISNLEPEDIATYYCQQYSNLPYTFGGGTKLEIKA
modifications: linker not given; order not stated

Changes are numbered by the printed parent chain. Some results are limits rather than exact numbers.

integrin αβ8 (αvβ8), form in the assay not stated (UniProt P06756), sequence (chain, as listed by the source, chain 1 of 2): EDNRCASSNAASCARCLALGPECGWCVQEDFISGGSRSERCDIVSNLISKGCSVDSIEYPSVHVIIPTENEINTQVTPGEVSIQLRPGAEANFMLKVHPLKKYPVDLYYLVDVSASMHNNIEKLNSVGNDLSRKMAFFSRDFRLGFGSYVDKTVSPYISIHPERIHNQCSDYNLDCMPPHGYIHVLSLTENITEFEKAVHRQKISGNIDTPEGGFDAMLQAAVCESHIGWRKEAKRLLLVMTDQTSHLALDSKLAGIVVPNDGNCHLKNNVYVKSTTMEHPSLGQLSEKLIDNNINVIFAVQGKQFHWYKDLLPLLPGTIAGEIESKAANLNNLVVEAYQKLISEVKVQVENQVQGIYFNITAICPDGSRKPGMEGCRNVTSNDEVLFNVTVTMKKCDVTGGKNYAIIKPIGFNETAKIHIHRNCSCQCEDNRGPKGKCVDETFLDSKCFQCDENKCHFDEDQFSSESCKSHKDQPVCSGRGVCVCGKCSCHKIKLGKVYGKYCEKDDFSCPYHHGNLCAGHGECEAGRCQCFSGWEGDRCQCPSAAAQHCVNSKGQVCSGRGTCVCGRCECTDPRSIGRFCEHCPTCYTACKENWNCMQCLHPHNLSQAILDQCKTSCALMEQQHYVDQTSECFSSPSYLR
integrin αβ8 (αvβ8), form in the assay not stated (UniProt P06756), sequence (P06756 31-992, chain 2 of 2): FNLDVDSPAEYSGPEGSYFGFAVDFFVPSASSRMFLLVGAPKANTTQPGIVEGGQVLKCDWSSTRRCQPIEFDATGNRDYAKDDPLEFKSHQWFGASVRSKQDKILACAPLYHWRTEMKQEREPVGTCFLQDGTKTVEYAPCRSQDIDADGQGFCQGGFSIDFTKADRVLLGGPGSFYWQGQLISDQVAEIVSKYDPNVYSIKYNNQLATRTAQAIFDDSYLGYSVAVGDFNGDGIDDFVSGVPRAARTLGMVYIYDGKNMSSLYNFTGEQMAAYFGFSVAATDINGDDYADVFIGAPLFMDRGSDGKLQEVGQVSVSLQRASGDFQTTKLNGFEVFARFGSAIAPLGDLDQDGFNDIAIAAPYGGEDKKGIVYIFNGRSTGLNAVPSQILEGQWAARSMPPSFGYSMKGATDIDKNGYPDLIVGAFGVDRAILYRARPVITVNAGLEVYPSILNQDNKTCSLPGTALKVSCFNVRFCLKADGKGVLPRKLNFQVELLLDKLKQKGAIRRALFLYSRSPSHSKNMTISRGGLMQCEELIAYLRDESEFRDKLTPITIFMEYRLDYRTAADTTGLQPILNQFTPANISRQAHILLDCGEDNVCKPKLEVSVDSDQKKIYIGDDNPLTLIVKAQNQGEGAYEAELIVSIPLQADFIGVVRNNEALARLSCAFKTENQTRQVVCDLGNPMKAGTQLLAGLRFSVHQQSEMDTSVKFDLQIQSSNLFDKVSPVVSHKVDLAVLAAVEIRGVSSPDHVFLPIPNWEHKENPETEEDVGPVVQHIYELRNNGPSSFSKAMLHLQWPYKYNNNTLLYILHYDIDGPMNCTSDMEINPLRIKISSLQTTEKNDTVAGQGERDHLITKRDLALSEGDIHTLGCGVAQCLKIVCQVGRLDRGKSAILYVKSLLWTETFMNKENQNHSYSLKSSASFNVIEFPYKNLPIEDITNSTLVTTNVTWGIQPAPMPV

The target of one test is integrin αβ8 (αvβ8), form in the assay not stated (UniProt P06756 31-992). Briefly: affinity determination of scFv; method and antigen form not stated.
integrin αβ8 (αvβ8), form in the assay not stated (UniProt P06756 31-992), sequence (chain, as listed by the source, chain 1 of 2): as the sequence (chain, as listed by the source, chain 1 of 2) above
integrin αβ8 (αvβ8), form in the assay not stated (UniProt P06756 31-992), sequence (P06756 31-992, chain 2 of 2): as the sequence (P06756 31-992, chain 2 of 2) above
The term Kd denotes a measure of binding affinity in units of concentration. The low end stands for higher affinity, the high end for lower affinity. On to B1, for which the dissociation constant (Kd) amounted to 3.04 nM. This lies in the single-digit nanomolar range.

For the molecule B2, binding was put at a Kd of 3.52 nM.

Molecule B3 showed an equilibrium dissociation constant (Kd) of 14 nM. This Kd lies about 4-fold higher than the previous one.

For B4, the Kd amounted to 3.85 nM. This Kd lies about 3.6-fold lower than the previous one.

As to B5, the affinity, expressed as Kd, was 3.35 nM. The Kd values of the last two molecules are within 1.5-fold of each other.

The molecule B6 yielded a dissociation constant (Kd) of 1.79 nM.

In the case of B7, the affinity, expressed as Kd, was 1.83 nM.

The molecule B8 had a dissociation constant Kd of over 100 nM.

The molecule B9 had a dissociation constant Kd of 14.8 nM.

For the molecule B10, the Kd amounted to 9.34 nM.

As for B11, the Kd is over 250 nM.

Another test concerns the target integrin αβ8 (αvβ8), form in the assay not stated (UniProt P06756). Described as above.
B12 returned a Kd of 3.2 nM.

For B13, the dissociation constant (Kd) turned out to be 2.09 nM.

Regarding B14, the dissociation constant Kd is 1.42 nM.

In turn, B15 came in with a dissociation constant (Kd) of 21.1 nM. This Kd is about 15-fold higher than that of the molecule before.

The values above are taken from patent publication US20140271478A1 (University of California, published 2014).
